Data taken from IntAct's records for PubMed 10704439.

B1: Spindle assembly checkpoint component MAD3 (Saccharomyces cerevisiae), P47074 (parent)
chain: MKAYAKKRISYMPSSPSQNVINFEEIETQKENILPLKEGRSAAALSKAIHQPLVEINQVKSSFEQRLIDELPALSDPITLYLEYIKWLNNAYPQGGNSKQSGMLTLLERCLSHLKDLERYRNDVRFLKIWFWYIELFTRNSFMESRDIFMYMLRNGIGSELASFYEEFTNLLIQKEKFQYAVKILQLGIKNKARPNKVLEDRLNHLLRELGENNIQLGNEISMDSLESTVLGKTRSEFVNRLELANQNGTSSDVNLTKNNVFVDGEESDVELFETPNRGVYRDGWENFDLKAERNKENNLRISLLEANTNLGELKQHEMLSQKKRPYDEKLPIFRDSIGRSDPVYQMINTKDQKPEKIDCNFKLIYCEDEESKGGRLEFSLEEVLAISRNVYKRVRTNRKHPREANLGQEESANQKEAEAQSKRPKISRKALVSKSLTPSNQGRMFSGEEYINCPMTPKGRSTETSDIISAVKPRQLTPILEMRESNSFSQSKNSEIISDDDKSSSSFISYPPQR
partner: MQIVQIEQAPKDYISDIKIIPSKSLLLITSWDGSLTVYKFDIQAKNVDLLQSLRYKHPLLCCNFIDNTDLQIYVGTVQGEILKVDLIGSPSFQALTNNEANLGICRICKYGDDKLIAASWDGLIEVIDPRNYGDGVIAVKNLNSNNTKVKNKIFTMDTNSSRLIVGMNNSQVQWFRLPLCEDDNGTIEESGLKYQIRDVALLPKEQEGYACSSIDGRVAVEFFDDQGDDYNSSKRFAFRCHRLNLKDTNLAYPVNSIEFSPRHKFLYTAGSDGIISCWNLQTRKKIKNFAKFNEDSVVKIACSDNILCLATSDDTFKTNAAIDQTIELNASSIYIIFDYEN

Variants of: B1
Conditions: with bub3_yeast BUB3, P26449

| effect of a mutation on the interaction | Variant |
| --- | --- |
| decreasing interaction | E382K |
